Data on one molecule can be found in patent US20150368299A1.

For the experiment, the target named is Aβ(1-40) monomer in 0.1% NaOH (human). Description: dot blot with densitometry; Aβ form dotted on nitrocellulose in serial dilution, antibody 0.2 µg/ml; higher value = weaker recognition.
Aβ(1-40) monomer in 0.1% NaOH (human), sequence (peptide, as listed by the source): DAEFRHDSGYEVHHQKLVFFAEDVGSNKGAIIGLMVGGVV

B1: murine monoclonal anti-Aβ(20-42) globulomer antibody m4C9 (antibody, V domains shown)
VH: QVQLQQPGAELVKPGASVKLSCKAPGYTFTSYWMHWVKQRPGQGLEWIGRIDPKSGDTKYTEKFKSKATLTVDKPSSTAYMQLSSLTSEDSAVYYCTTMSKLSGTHAWFAYWGQGTLVTVSA
VL: DIKMTQSPSSMYASLGERVTITCKASQDINSYLTWFQQKPGKSPKTLIYRANRLVDGVPSRFSGSGSGQDYSLTISSLEYEDMGIYYCLQYDEFPLTFGAGTKLELK
As for B1, the dot blot relation of recognition of Aβ(20-42) globulomer to recognition of this Aβ form came to 110000.
